From patent US10358464B2, “Specific binding sites in collagen for integrins and use thereof” (The Texas A&M University System, priority 2005, dated 2019)
Read-outs that look alike come from different tables or passages of the source. Non-standard residues stand in square brackets, D forms with d. Residues, ends and D or L forms follow the SMILES beside them. No end group written: not given here. Hyp = O=C(O)[C@@H]1C[C@@H](O)CN1

Experiments:
[1] = CD temperature-dependent denaturation of triple helix; type: physicochemical; conditions: CD ellipticity at 225 nm, 20° C./hr, Boltzmann sigmoidal fit
Experimental: Circular Dichroism (CD) Spectroscopy. Synthetic collagen peptides were analyzed by CD spectroscopy, as described previously (18) with the following modifications. Briefly, peptides were dissolved in HBS to a concentration of 50 μM. CD spectra were collected on a Jasco J720 spectropolarimeter (Tokyo, Japan) from 190 to 240 nm, with bandwidth of 1 nm and integrated for 1 s at 0.2 nm intervals. Samples were measured at room temperature using cuvettes with 0.02 cm path length. For temperature-dependent denaturation analysis, […] of peptides were added to a thermostatically controlled cuvette with a 0.5 cm path length. Thermal transition profiles were recorded at 225 nm as described above with a temperature slope of 20° C./hr. To calculate the temperature melting points, the thermal transition profiles were fitted with Boltzmann sigmoidal model using the GraphPad Prism™ software (GraphPad Software Inc., San Diego, Calif.).

[2] = molecular target: T1, α2I binding to type III collagen (Homo sapiens, UniProt P17301); assay: Competition ELISA, inhibition of I domain binding to type III collagen; conditions: 100 μM peptide, 5 μM α2I, type III procollagen-coated wells
T1 construct: recombinant I domains from integrins α1 and α2 (α1I and α2I); made in house

[3] = molecular target: T2, α1I binding to type III collagen (Homo sapiens, UniProt P56199); assay: as above; conditions: 100 μM peptide, 0.5 μM α1I, type III procollagen-coated wells
T2 construct: recombinant I domains from integrins α1 and α2 (α1I and α2I); made in house

[4] = molecular target: T3, α2I (recombinant I domain of integrin α2) (Homo sapiens, UniProt P17301); assay: SPR (BIAcore 3000), I domain binding to immobilized fibrillar collagens; conditions: equilibrium analysis, 1 mM MgCl2
T3 construct: recombinant I domains from integrins α1 and α2 (α1I and α2I); made in house
Experimental: Surface Plasmon Resonance (SPR) measurements. For the analyses of interactions between recombinant I domains and fibrillar collagens, SPR measurements were carried out at ambient temperature using the BIAcore 3000 system (BIAcore, Uppsala, Sweden) as described previously (21) with following modifications. First, purified recombinant human procollagens I and III (described above), or bovine mature type II collagen (Sigma) were immobilized on the flow cells of a CM5 chip resulting in 200-700 response units of immobilized protein.
SPR sensorgrams from different injections were overlaid using the BIAevaluation software (BIAcore AB). Data from the steady state portion of the sensorgrams were used to determine the binding affinities. Based on the correlation between the SPR response and change in protein mass on the surfaces of flow cells, values for the binding ratio, νbound, and the concentration of free protein, [P]free, were calculated using the equations described previously (21). Scatchard analysis was performed by plotting νbound/[P]free against νbound in which the negative reciprocal of the slope is the dissociation constant, KD. Nonlinear regression was also performed by plotting νbound against [P]free and fitted with the one-binding class or the two-binding class models using the GraphPad Prism™ software (GraphPad Software Inc., San Diego, Calif.). Results from the two models were compared with respect to the value of R^2 and the degree of freedom of the curve fit. The model that gave KD values outside the experimental data range was excluded. Experimental results were reproducible with at least three independent protein preparations.
The interactions between the two I domains and fibrillar collagens (types I, II and III) were examined by SPR. Solutions of 1 μM α1I or α2I were passed over chips containing immobilized collagen I, II, or III in the presence of 1 mM MgCl2.
The BIAcore 3000 system used in the present invention had higher sensitivity of detection which enabled examination of the interactions between α2I and collagens at a sub-micromolar concentration range. […] The binding affinities of α2I to the three types of collagen appeared to be slightly more variable.

MRC-5 cells = assay: Cell attachment assay on coated substrates; type: cell-based, human; conditions: increasing coating concentrations, 1.5×10^4 cells per well, 45 min, room temperature
Experimental: Reagents and Cell Culture. The human recombinant mature type III collagen used for cell attachment assays was purchased from FibroGen. All cell culture media components were purchased from Invitrogen. The human lung fibroblast cell line MRC-5 was purchased from American Type Culture Collection (ATCC) (Manassas, Va.). The cells were cultured and passaged in Dulbecco's modified Eagle's medium (DMEM) supplemented with 10% fetal bovine serum, 100 unit/ml penicillin and 100 μg/ml streptomycin. The cells were grown to subconfluence and passaged every 2-3 days.
Cell attachment assay. MRC-5 cells were starved overnight in serum deficient DMEM containing penicillin and streptomycin, then detached using 1 mM EDTA and 0.025% trypsin at 37° C. for 2 minutes. The cells were washed with PBS and resuspended in DMEM containing 0.2% BSA supplemented with 2 mM MgCl2. 100 μl of the cell suspension (˜1.5×10^5 cells/ml) were added to the microtiter wells coated with different concentrations of collagen or collagen peptides and blocked with PBS containing 0.5% (w/v) BSA. After incubation at room temperature for 45 min, the wells were washed with PBS. Attached cells were fixed with 3% p-formaldehyde for 10 min at room temperature. Following washing with cold Tris-buffered saline (TBS), pH 7.4, cells were fixed again in 20% methanol for 10 min and stained with 0.5% crystal violet for 5 min. The wells were thoroughly washed with distilled water and air-dried. Sodium citrate (0.1 M) was then added to the wells to dissolve the dye and the absorbance at 590 nm was measured. The maximum cell attachment on type III collagen was set to 100% and, residual attachment on BSA was set to 0%.
Adhesion of MRC-5 cells to peptide#1 (SEQ ID NO: 15) substrates. […] Wells in 96-well plates were coated with increasing concentrations of type III collagen, peptide #1 (SEQ ID NO: 15) or #2 (SEQ ID NO: 16) and 1.5×10^4 MRC-5 cells were added to each well. The plate was incubated for 45 min at room temperature and adhering cells were quantified as described herein.

[5] = first line per collagen in Table 2 (unit from b77), read-out: KD, high affinity binding class
[6] = second line per collagen in Table 2 (unit from b77), read-out: KD, low affinity binding class

T3 sequence (P17301 188-365 limits assumed): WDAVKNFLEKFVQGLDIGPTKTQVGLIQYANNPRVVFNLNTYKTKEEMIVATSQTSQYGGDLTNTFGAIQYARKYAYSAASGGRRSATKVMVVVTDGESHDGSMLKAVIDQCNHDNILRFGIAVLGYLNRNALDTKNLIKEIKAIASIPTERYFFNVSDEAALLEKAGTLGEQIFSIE
T1 sequence (P17301 188-365 limits assumed): as above
T2 sequence (P56199 161-360 limits assumed): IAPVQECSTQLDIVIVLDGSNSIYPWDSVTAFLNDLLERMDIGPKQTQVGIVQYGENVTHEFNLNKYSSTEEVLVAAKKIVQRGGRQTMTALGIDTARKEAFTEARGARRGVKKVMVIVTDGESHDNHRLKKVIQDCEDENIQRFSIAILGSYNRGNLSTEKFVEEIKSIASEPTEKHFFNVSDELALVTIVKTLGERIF

Molecule | inhibition of binding of α2I to type III collagen [2] | inhibition of binding of α1I to type III collagen [3] | Kd [4, 5] [µM] | Kd [4, 6] [µM] | adhesion of MRC-5 cells to coated substrate (MRC-5 cells) | also measured
N=C(N)NCCC[C@H](NC(=O)[C@H](CCC(=O)O)NC(=O)CNC(=O)[C@@H]1C[C@@H](O)CN1C(=O)[C@H](CCCNC(=N)N)NC(=O)CNC(=O)[C@@H]1C[C@@H](O)CN1C(=O)[C@@H]1CCCN1C(=O)CNC(=O)[C@@H]1C[C@@H](O)CN1C(=O)[C@@H]1CCCN1C(=O)CNC(=O)[C@@H]1C[C@@H](O)CN1C(=O)[C@@H]1CCCN1C(=O)CN)C(=O)NCC(=O)N1CCC[C@H]1C(=O)N1C[C@H](O)C[C@H]1C(=O)NCC(=O)N1CCC[C@H]1C(=O)N1C[C@H](O)C[C@H]1C(=O)NCC(=O)N1CCC[C@H]1C(=O)N1C[C@H](O)C[C@H]1C(N)=O [GROGER] (H-GP[Hyp]GP[Hyp]GP[Hyp]GR[Hyp]GERGP[Hyp]GP[Hyp]GP[Hyp]-NH2; N-terminus and C-terminus assumed) |  |  |  |  |  | melting temperature (Tm) of triple helix [1]: 41 °C
(GPO)11 (GPRGRT) [peptide #3, control peptide, reference compound] | did not show any inhibitory activity | did not show any inhibitory activity |  |  |  | 
Collagen II: bovine mature type II collagen (Sigma) |  |  | 1.75 | 16.5 ± 3.89 |  | Kd ([4]; second line per collagen in Table 2 (unit from b77), listed as type II collagen, read-out: KD, low affinity binding class): ~16.5 µM
(GPO)3GAOGERGROGLO(GPO)3 (GP[Hyp]GP[Hyp]GP[Hyp]GA[Hyp]GERGR[Hyp]GL[Hyp]GP[Hyp]GP[Hyp]GP[Hyp]) [peptide #2] | 60% | 40% |  |  | could not | 
Collagen I: purified recombinant human procollagen I immobilized for SPR; type I collagen of the cited earlier study |  |  | 0.26 ± 0.08 | 3.99 ± 0.82 |  | Kd ([4]; first line per collagen in Table 2 (unit from b77), listed as type I collagen, read-out: KD, high affinity binding class): ~0.3 µM; Kd ([4]; second line per collagen in Table 2 (unit from b77), listed as type I collagen, read-out: KD, low affinity binding class): ~4 µM
Collagen III: recombinant human procollagen III in SPR; human recombinant mature type III collagen (FibroGen) in cell attachment assay (protein, non-natural residues, recombinant human procollagen III in SPR; human recombinant mature type III collagen (FibroGen) in cell attachment assay) QQEAVEGGCSHLGQSYADRDVWKPEPCQICVCDSGSVLCDDIICDDQELDCPNPEIPFGECCAVCPQPPTAPTRPPNGQGPQGPKGDPGPPGIPGRNGDPGIPGQPGSPGSPGPPGICESCPTGPQNYSPQYDSYDVKSGVAVGGLAGYPGPAGPPGPPGPPGTSGHPGSPGSPGYQGPPGEPGQAGPSGPPGPPGAIGPSGPAGKDGESGRPGRPGERGLPGPPGIKGPAGIPGFPGMKGHRGFDGRNGEKGETGAPGLKGENGLPGENGAPGPMGPRGAPGERGRPGLPGAAGARGNDGARGSDGQPGPPGPPGTAGFPGSPGAKGEVGPAGSPGSNGAPGQRGEPGPQGHAGAQGPPGPPGINGSPGGKGEMGPAGIPGAPGLMGARGPPGPAGANGAPGLRGGAGEPGKNGAKGEPGPRGERGEAGIPGVPGAKGEDGKDGSPGEPGANGLPGAAGERGAPGFRGPAGPNGIPGEKGPAGERGAPGPAGPRGAAGEPGRDGVPGGPGMRGMPGSPGGPGSDGKPGPPGSQGESGRPGPPGPSGPRGQPGVMGFPGPKGNDGAPGKNGERGGPGGPGPQGPPGKNGETGPQGPPGPTGPGGDKGDTGPPGPQGLQGLPGTGGPPGENGKPGEPGPKGDAGAPGAPGGKGDAGAPGERGPPGLAGAPGLRGGAGPPGPEGGKGAAGPPGPPGAAGTPGLQGMPGERGGLGSPGPKGDKGEPGGPGADGVPGKDGPRGPTGPIGPPGPAGQPGDKGEGGAPGLPGIAGPRGSPGERGETGPPGPAGFPGAPGQNGEPGGKGERGAPGEKGEGGPPGVAGPPGGSGPAGPPGPQGVKGERGSPGGPGAAGFPGARGLPGPPGSNGNPGPPGPSGSPGKDGPPGPAGNTGAPGSPGVSGPKGDAGQPGEKGSPGAQGPPGAPGPLGIAGITGARGLAGPPGMPGPRGSPGPQGVKGESGKPGANGLSGERGPPGPQGLPGLAGTAGEPGRDGNPGSDGLPGRDGSPGGKGDRGENGSPGAPGAPGHPGPPGPVGPAGKSGDRGESGPAGPAGAPGPAGSRGAPGPQGPRGDKGETGERGAAGIKGHRGFPGNPGAPGSPGPAGQQGAIGSPGPAGPRGPVGPSGPPGKDGTSGHPGPIGPPGPRGNRGERGSEGSPGHPGQPGPPGPPGAPGPCCGGVGAAAIAGIGGEKAGGFAPYYGDEPMDFKINTDEIMTSLKSVNGQIESLISPDGSRKNPARNCRDLKFCHPELKSGEYWVDPNQGCKLDAIKVFCNMETGETCISANPLNVPRKHWWTDSSAEKKHVWFGESMDGGFQFSYGNPELPEDVLDVHLAFLRLLSSRASQNITYHCKNSIAYMDQASGNVKKALKLMGSNEGEFKAEGNSKFTYTVLEDGCTKHTGEWSKTVFEYRTRKAVRLPIVDIAPYDIGGPDQEFGVDVGPVCFL |  |  | 0.33 ± 0.03 | 14.5 ± 3.41 | could support adhesion of MRC-5 cells in a dose-dependent manner | Kd ([4]; first line per collagen in Table 2 (unit from b77), listed as type III collagen, read-out: KD, high affinity binding class): ~0.3 µM; Kd ([4]; second line per collagen in Table 2 (unit from b77), listed as type III collagen, read-out: KD, low affinity binding class): ~14.5 µM
